Measurements: the nanobody polyreactivity screen of Harvey et al. (2022)

Experiment: yeast display, Sf9 membrane polyspecificity reagent, FACS + sequencing; frameworks hold sequencing errors
Method in brief: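 Sorting gates, low and high (top ~1%), were placed on anti-HA fluorescence to track expression and on streptavidin fluorescence to track reagent binding. A clone's polyreactivity label is taken from the gate it came out of. The reagent was 10% biotinylated, detergent-solubilized Sf9 membrane, applied for 1 hour at 4 °C to galactose-induced yeast display cells.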

Sequence | polyreactivity (PSR sort gate)
QVQLVESGGGLVQAGGSLRLSCAASGFIFTVNAMGWYRQAPGKERELVAAITQSGGNTSYADSVKGRFTISRDNAKNTVYLQMNSLTPEDTAVYYCNASSDTSRYGVSTYYYWGQGTQVTVSS | low polyreactivity
QVQLVESGGGLVQAGGSLRLSCAASGFIFTVYAMGWYRQAPGKERELVAAINRSGTRTTYADSVKGRFSISRDNAKNTVYIQMNSLKPEDTAVYYCAALSTGSHWQNEYGYWGQGTQVTVSS | low polyreactivity
QVQLVESGGGLVQAGGSLRLSCAASGFIFTYYAMGWFRQAPGKERELVAVISWSGGTTYYADSVKGRFTISRDNAKNTVYLQMNSLKPEDTAVFYCNARSLAKLPRSSVRVEYDYWGQGTQVTLSS | low polyreactivity
QVQLVESGGGLVQAGGSLRLSCAASGFIFTYYAMGWYRQAPGKERELVAAISSRGGSTFYADSVKGRFTISRDNAKNTVYLQMNSLKPEDTAVYYCAADKWYAANQGYYYWGQGTQVTVSS | low polyreactivity
QVQLVESGGGLVQAGGSLRLSCAASGFIFVAYALGWYRPAPGKERELVAAITSSGVTTYYADSVKGRFTISRDNAKNTVYLQMTSLKQDDTAVYFCAAYRRRSPFDYWGQGTQVTVSS | high polyreactivity
QVQLVESGGGLVQAGGSLRLSCAASGFIFVNYAMGWNRQAPGKERELVAAISARGGSTNYADSVKGRFTISRDNAKNTVYLQMNSLKPEDTAVYYCAARYTARRQSYGYWGQGTQVTVSS | high polyreactivity
QVQLVESGGGLVQAGGSLRLSCAASGFIFVRNAMGWYRQAPGKEREFVAAITRSGGSTYYADSVKGRFTISRDNAKNTVYLQMNCLKPEDTAVYYCAVLYHSRDRYTYRDEDYWGQGTQVTVSS | low polyreactivity
QVQLVESGGGLVQAGGSLRLSCAASGFIFVRYAMGWYRQAPGKERELVAAISWRGGSTYYADSVKGRFTISRDNAKNTVYLQMNSLKPEDTAVYYCAAVTWVHRYSRFHPFVAFDYWGQGTQVTVSS | high polyreactivity
QVQLVESGGGLVQAGGSLRLSCAASGFIFVTNAMGWYRQAPGKERELVAAINWSGGRTYYADSVKGRFTISRDNAKNTVYLQMNSLKPEDTAVYYCAADPYARLGEYGYCGQGTQVTVSS | low polyreactivity
QVQLVESGGGLVQAGGSLRLSCAASGFIFWDNAMGWYRQAPGKERELVAAISRNGGRTYYADSVKGRFTISRDNAKNTVYLQMNSLKPEDTAVYYCAAYTARSYGMDYWGQGTQVTVSS | high polyreactivity
QVQLVESGGGLVQAGGSLRLSCAASGFIFWDYAMGCYRQAPGKERELVAAISDSGGDTYYADSVKGRFTLSRDNAKNTVYLQMNSLKPEDPAVYYRAADVELWVFRGQQYDYWGQGTQETVSS | low polyreactivity
QVQLVESGGGLVQAGGSLRLSCAASGFIFWGNTMGWYRQAPGKERELVAAISSSGGRTYYADSVKGRFTISRDNAKNTVYLQMNSLKPEDTAVYYCAKVRRSDYDSDYWGQGTQVTVSS | high polyreactivity
QVQLVESGGGLVQAGGSLRLSCAASGFIFWGNTMVWYRQAPGKERELVAAITYSGGSTYYADSVKGRFTISRDNAKNTVYLQMNSLKPEDTAVYYCNKVFVYRGDYWGQGSQVTVSS | high polyreactivity
QVQLVESGGGLVQAGGSLRLSCAASGFIFWHYAMGWYRQAPGKERELVAAISWSGGRTYYADSVKGRFTISRDNAKNTVYLQMNSLKPEDTAVYYCARSKRVTPYEYDYWGQGTQVTVSS | high polyreactivity
QVQLVESGGGLVQAGGSLRLSCAASGFIFWHYTMGWYRQAPGKERELVAASTWTGGSTYYADSVKGRFTISRDNEKNTVYLQMNSLKPEETAVYYCNADYPGEGITYGYWGQGTQVTLSS | low polyreactivity
QVQLVESGGGLVQAGGSLRLSCAASGFIFWPYAMGWYRQAPGKERELVAAITRSGGSTYYADSVKGRFTISRDNAKNTVYLQMNSLKPEDTAVYYCAARKRGTFTYDYWGQGTQVTVSS | high polyreactivity
QVQLVESGGGLVQAGGSLRLSCAASGFIFWQNAMGWSRQAPGKEREWVADISWSGGGSTYYADSVKGRFTISRDNAKNTVYLQMNSLKPADTALYYCAASQVYSYYGTYYSAYDYWGQGTQVTVSS | low polyreactivity
QVQLVESGGGLVQAGGSLRLSCAASGFIFWYNAMGWYRQAPGKERELVAAITTAGSTNYADSVKGRFTISRDNAKNTVYLQMNSLKPEDTAVYYCAAVSSYWGQGTQVTVSS | low polyreactivity
QVQLVESGGGLVQAGGSLRLSCAASGFIFWYYAMGWYRQSPGTERELVAGITSGGSTNYADSVKGRFTISRDNAKNTVYLQMNSLKPEDTAVYYCAAAPYGGFGRGYDYWGQGTQVTVSS | high polyreactivity
QVQLVESGGGLVQAGGSLRLSCAASGFIFYAYAMGWYRQAPGKEREFVAAISARGGNTYYADSVKGRFTISRDNAKNSVYLQMNSLKPEDTAVYYCAIYGGYYYLSGYYYWGQGTQVTVSS | high polyreactivity
QVQLVESGGGLVQAGGSLRLSCAASGFIFYDYAMGWYRQAPGKERELVAVITSGGSTYYADSVKGRFTISRDNAKNTVYLQMNSLKPEDTAVYYCNADWVFTWYDYPNDTYDYWGQGTQVTVSS | low polyreactivity
QVQLVESGGGLVQAGGSLRLSCAASGFIFYDYSMAWYRQAPGKEREFVAAISWSGGRTYYADSVKGRFTISRDNAKNTVYLQMNSLKPVDTAVYYCAVDAYRYWWTTYVSDFDYWGQGTQVTVSS | high polyreactivity

Sequence | polyreactivity (PSR sort gate)
QVQLVESGGGLVQAGGSLRLSCAASGFIFYFYAMGWYRQAPGKERELVAAISSGGSTNYADSVKGRFTISRDNAQNTVYIQMNSQKPEDTAVYYCNKSGYSKYFLNDYTYWGQGTQVTVSS | low polyreactivity
QVQLVESGGGLVQAGGSLRLSCAASGFIFYFYAMGWYRQAPGKERELVAAISWSGGSTYYADSVKGRFTISRDNAKNTDYLQMNSLKPEDTAVYYCAAQSWSGDSTFWRYDYWGQGTQVTVSS | low polyreactivity
QVQLVESGGGLVQAGGSLRLSCAASGFIFYFYAMGWYRQAPWKERELVAAISSGGSTNYADSVKGRFTISRDNAKNTVYLQMISLKPEDTAVYYCARKTSSYFGHYYYWGQGTQVTVSS | low polyreactivity
QVQLVESGGGLVQAGGSLRLSCAASGFIFYFYTMGWYRQAPGKERELVAGITWLDGSTYYADSVKGRFTISRDNAKNTVYLQMNSLKPEDTAVYYCAVDYDLVVSPYYYWGQGTQVTVSS | low polyreactivity
QVQLVESGGGLVQAGGSLRLSCAASGFIFYGYTMGWYRQAPGKERELVAAITRGGSTYYADSVKGRFTISRDNAKNTVYLQMNSLKPEDTAVYYCAALTWDGMDYWGQGTQVTVSS | high polyreactivity
QVQLVESGGGLVQAGGSLRLSCAASGFIFYHNAMGWYRQAPGKERELVAAISQSGGRTYYADSVKGRFTISRDNAKNTVYLQMNSLKPEDTAGYYCAKRTRVYHPTYDYWGQGTQVTVSS | high polyreactivity
QVQLVESGGGLVQAGGSLRLSCAASGFIFYHYAMGWYRQAPGKARELVAAISGRGGSTYYADSVKGRFTISRDNAKNTVYLQMNSLKPEDTAVYYCATDRQRADYYWGQGTQVTVSS | high polyreactivity
QVQLVESGGGLVQAGGSLRLSCAASGFIFYHYVLGWYRQAPGKERELVAAITRGGSTYADSVKGRFTISRDNAKNTVYLQMNSLKPEDTAVYYCNADYPFSYFTRLMDYWGQGTQVTVSS | low polyreactivity
QVQLVESGGGLVQAGGSLRLSCAASGFIFYIYAMGWYRQAPGKERELVAAITSGGSTYYADSVKGRFTISRDNAKNTVYLQMNSLKPEDTAVYFCAAESYYGYDYWGQGTQVTLSS | low polyreactivity
QVQLVESGGGLVQAGGSLRLSCAASGFIFYKNAMGWSRQAPGKEREFVAAITWSGGNTYYADSVKGRFTISRDNAKNTVYLQLNSLKPEETAVYYCAARDSKWGQGTQVTVSS | low polyreactivity
QVQLVESGGGLVQAGGSLRLSCAASGFIFYKNAMGWYRQAPGKERELVAAISASGVRTYYADSVKGRFTISRDNAKNTVYLQMNSLKPEDTAVYYSAADYTPEYYWGQGTQVTVSS | high polyreactivity
QVQLVESGGGLVQAGGSLRLSCAASGFIFYKYAMGWYRQAPGKERELVAAITASGGSTYYADSVKGRFTISRDNEKITVYLQMNSLKPEDTEVYFCAASRLFGFDYWGQGTQVTVSS | high polyreactivity
QVQLVESGGGLVQAGGSLRLSCAASGFIFYLYAMGWSRQAPGKERELVASINVSGASTRYADSVKGRFTISRDNAKNTVYLQMNSLKPEDTAVYYCAAPSRYDYWGQGTQVTVSS | low polyreactivity
QVQLVESGGGLVQAGGSLRLSCAASGFIFYNAMGWYRQAPGKESELVAAITGSGGRTYYADSVKGRFTISRDNAKNTVYLQMNSLKPEDTAVYYCAADGYVRTVTSGWALRMGYWGQGTQVTVSS | high polyreactivity
QVQLVESGGGLVQAGGSLRLSCAASGFIFYNYAMGWYRQAPGKERELVAAISKSGDSTYYADSVKGRFTISRDNAKNTVYLQMNSLKPEDTAVYYCNKEIVWHLWYESWGQGTQVTVSS | high polyreactivity
QVQLVESGGGLVQAGGSLRLSCAASGFIFYQYAMGWYRQAPGKERELVAAISTRGGSTYYADSVKGRFTISRDNAKNTVYLQMNSLKPEDTAVYYCAATVNARRVTRRYYWGQGTQVTVSS | high polyreactivity
QVQLVESGGGLVQAGGSLRLSCAASGFIFYQYAMGWYRQAPGKERELVAAITSRGGRTYYADSVKGRFTISRDNAKNTVYLQMNSLKPEDTAVYYCAVRKASDYYYWGQGTQVTVSS | high polyreactivity
QVQLVESGGGLVQAGGSLRLSCAASGFIFYRNAMGWYRQAPGKERELVAGISRSGTRTYYADSVKGRFTISRDYSKNTVYLQMNSLKPEDTAVYYCAADRSLGYDYWGQGTQVTVSS | high polyreactivity
QVQLVESGGGLVQAGGSLRLSCAASGFIFYRNPMGWYRQAPGKEREFVAAIRGRGGATYYADSVKGRFTISRDNAKITVYLQMNSLKREDTAVYYCAADTRPGYSGFEYWGQGTQVTVSS | high polyreactivity
QVQLVESGGGLVQAGGSLRLSCAASGFIFYRYAMGWYRQAPGKEREFVASISGSGGRTYFADSVKGRFTISRDNAKNTVYLQMNSLKPEDTAVYYCNVVSKSRISQYVGYSYDYWGQGTQVTVSS | high polyreactivity
QVQLVESGGGLVQAGGSLRLSCAASGFIFYRYAMGWYRQAPGKERELVATIRYSGGSTYYADSVKGRFTISRDNAKNTVYLQMNSLKPEDTAVYYCNARRRHPSVSRPPYDYWGQGTQVTVSS | high polyreactivity
